Assay results taken from patent publication US20150274802A1 (INDIANA UNIVERSITY RESEARCH AND TECHNOLOGY, published 2015).
Ends that are not written are not given here.

B1: #57: Gly^B2-PEG20K-Gly^B2 #11 dimer (ligand)
chain: GPEHLCGAHLVDALYLVCGDRGFYGYGSSSRRAPQTGIVDECCHRSCDLRRLENYCN
modifications: not fully specified (N-terminus); ends and bridges not checked; also: dimer: N-terminal amines of two chains joined by bifunctional 20K PEG linker
B2: IGF1 (Y^B16L^B17) (ligand)
chain 1: GIVDECCFRSCDLRRLEMYCA
chain 2: GPETLCGAELVDALYLVCGDRGFYFNKPT
notes: also called IGF analog IGF1 (Y^B16L^B17)

What was measured:
[1] = target: T1, human IGF-1 receptor (human, UniProt P08069 31-1367); test: cell-based or functional assay
[2] = target: T1, human IGF-1 receptor; test: cell-based or functional assay; remark: listed apart in the source
[3] = target: T2, human insulin receptor (human, UniProt P06213 28-1382); test: cell-based or functional assay
[4] = target: T2, human insulin receptor; test: competition SPA, [125I]insulin

Binder	Phosphorylation (EC50), % IGF-1 R [1] [%]	% Insulin Activity (in vitro, assay not named) [2] [%]	potency in vitro against monomer #39 [3] [fold]	IC50 [4] [nM]
B1	2.6	2.6	~5	
B2				0.51
